According to US20150197564A1 (Regeneron, published 2015):

B1: hANGPTL3(17-460)-His (other)
chain: SRIDQDNSSFDSLSPEPKSRFAMLDDVKILANGLLQLGHGLKDFVHKTKGQINDIFQKLNIFDQSFYDLSLQTSEIKEEEKELRRTTYKLQVKNEEVKNMSLELNSKLESLLEEKILLQQKVKYLEEQLTNLIQNQPETPEHPEVTSLKTFVEKQDNSIKDLLQTVEDQYKQLNQQHSQIKEIENQLRRTSIQEPTEISLSSKPRAPRTTPFLQLNEIRNVKHDGIPAECTTIYNRGEHTSGMYAIRPSNSQVFHVYCDVISGSPWTLIQHRIDGSQNFNETWENYKYGFGRLDGEFWLGLEKIYSIVKQSNYVLRIELEDWKDNKHYIEYSFYLGNHETNYTLHLVAITGNVPNAIPENKDLVFSTWDHKAKGHFNCPEGYSGGWWWHDECGENNLNGKYNKPRAKSKPERRRGLSWKSQNGRLYSIKSTKMLIHPTDSESFEHHHHHHHHHH
B4: mANGPTL3(17-455)-His (other)
chain: SRVDPDLSSFDSAPSEPKSRFAMLDDVKILANGLLQLGHGLKDFVHKTKGQINDIFQKLNIFDQSFYDLSLRTNEIKEEEKELRRTTSTLQVKNEEVKNMSVELNSKLESLLEEKTALQHKVRALEEQLTNLILSPAGAQEHPEVTSLKSFVEQQDNSIRELLQSVEEQYKQLSQQHMQIKEIEKQLRKTGIQEPSENSLSSKSRAPRTTPPLQLNETENTEQDDLPADCSAVYNRGEHTSGVYTIKPRNSQGFNVYCDTQSGSPWTLIQHRKDGSQDFNETWENYEKGFGRLDGEFWLGLEKIYAIVQQSNYILRLELQDWKDSKHYVEYSFHLGSHETNYTLHVAEIAGNIPGALPEHTDLMFSTWNHRAKGQLYCPESYSGGWWWNDICGENNLNGKYNKPRTKSRPERRRGIYWRPQSRKLYAIKSSKMMLQPTTHHHHHHHHHH

Legend:
bovine LPL = molecular target: T1, bovine LPL (bovine, UniProt P11151 29-478, limits assumed); assay: cell-based or functional assay
T1 sequence (looked up): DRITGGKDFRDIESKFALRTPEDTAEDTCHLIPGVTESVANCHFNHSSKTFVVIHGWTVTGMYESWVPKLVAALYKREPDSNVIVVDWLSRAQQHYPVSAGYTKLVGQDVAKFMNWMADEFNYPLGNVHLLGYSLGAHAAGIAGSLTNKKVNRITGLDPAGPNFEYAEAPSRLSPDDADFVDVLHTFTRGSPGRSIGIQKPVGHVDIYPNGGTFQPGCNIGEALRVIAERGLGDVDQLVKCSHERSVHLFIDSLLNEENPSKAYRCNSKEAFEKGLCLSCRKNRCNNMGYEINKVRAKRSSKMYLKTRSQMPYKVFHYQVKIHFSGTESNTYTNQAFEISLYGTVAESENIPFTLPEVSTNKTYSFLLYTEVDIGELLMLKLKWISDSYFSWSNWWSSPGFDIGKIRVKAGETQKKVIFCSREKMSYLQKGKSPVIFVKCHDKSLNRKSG

hANGPTL3(17-460)-His [1] = molecular target: B1; assay: SPR Biacore, antigen captured, 37C, pH 7.4, HBS-EP
Procedure: (§1) All kinetic binding experiments were performed at 25° C. or 37° C. on a BIACORE™ T200 label-free molecular interaction instrument (GE Healthcare) using a CM5 sensor chip. Briefly, an antigen capture surface was generated by covalently coupling either an anti-mouse IgG-specific antibody (anti-mFc; GE Healthcare; catalog #BR-1008-38) or an anti-pentahistidine-specific antibody (Qiagen; catalog #34660) to the surface of a CM5 sensor chip using a standard amine coupling method.

mANGPTL3(17-455)-His = molecular target: B4; assay: SPR Biacore, antigen captured, 37C, pH 7.4, HBS-EP
Procedure: as §1

hANGPTL3(17-460)-His [2] = molecular target: B1; assay: SPR Biacore, antigen captured, 25C, pH 7.4, HBS-EP
Procedure: as §1

hANGPTL3(17-169)-mFc = molecular target: T2, hANGPTL3(17-169)-mFc (human); assay: SPR Biacore, antigen captured, 25C, pH 7.4, HBS-EP
T2 construct: also called N-terminal coiled-coil domain of hANGPTL3 with a C-terminal mouse Fc fusion
T2 chain: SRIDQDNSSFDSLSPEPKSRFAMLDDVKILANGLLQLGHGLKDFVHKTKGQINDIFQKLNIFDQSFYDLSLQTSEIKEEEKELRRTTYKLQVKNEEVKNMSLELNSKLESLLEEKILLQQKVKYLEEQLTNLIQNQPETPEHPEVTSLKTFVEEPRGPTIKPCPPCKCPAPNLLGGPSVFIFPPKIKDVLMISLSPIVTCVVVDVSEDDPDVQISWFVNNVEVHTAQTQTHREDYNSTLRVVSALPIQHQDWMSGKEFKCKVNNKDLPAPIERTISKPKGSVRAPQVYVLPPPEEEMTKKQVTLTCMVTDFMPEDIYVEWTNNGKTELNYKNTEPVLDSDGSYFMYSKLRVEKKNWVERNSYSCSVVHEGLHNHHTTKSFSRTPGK
Procedure: as §1

B1
EC50 (nM), inhibition of LPL activity (bovine LPL): 50 nM

B2: hANGPTL3(17-170)-His (other)
chain: SRIDQDNSSFDSLSPEPKSRFAMLDDVKILANGLLQLGHGLKDFVHKTKGQINDIFQKLNIFDQSFYDLSLQTSEIKEEEKELRRTTYKLQVKNEEVKNMSLELNSKLESLLEEKILLQQKVKYLEEQLTNLIQNQPETPEHPEVTSLKTFVEKHHHHHH
EC50 (nM), inhibition of LPL activity (bovine LPL): 91 nM

B3: MfANGPTL3(17-170)-mmH (other)
chain: SRIDQDNSSFDSVSPEPKSRFAMLDDVKILANGLLQLGHGLKDFVHKTKGQINDIFQKLNIFDQSFYDLSLQTSEIKEEEKELRRTTYKLQVKNEEVKNMSLELNSKLESLLEEKILLQQKVKYLEEQLTNLIQNQPATPEHPEVTSLKSFVEKEQKLISEEDLGGEQKLISEEDLHHHHHH
EC50 (nM), inhibition of LPL activity (bovine LPL): 625 nM

B4
EC50 (nM), inhibition of LPL activity (bovine LPL): 33 nM

B5: hANGPTL4(26-148)-mFc (Fc fusion)
chain: GPVQSKSPRFASWDEMNVLAHGLLQLGQGLREHAERTRSQLSALERRLSACGSACQGTEGSTDLPLAPESRVDPEVLHSLQTQLKAQNSRIQQLFHKVAQQQRHLEKQHLRIQHLQSQFGLLDEPRGPTIKPCPPCKCPAPNLLGGPSVFIFPPKIKDVLMISLSPIVTCVVVDVSEDDPDVQISWFVNNVEVHTAQTQTHREDYNSTLRVVSALPIQHQDWMSGKEFKCKVNNKDLPAPIERTISKPKGSVRAPQVYVLPPPEEEMTKKQVTLTCMVTDFMPEDIYVEWTNNGKTELNYKNTEPVLDSDGSYFMYSKLRVEKKNWVERNSYSCSVVHEGLHNHHTTKSFSRTPGK
EC50 (nM), inhibition of LPL activity (bovine LPL): 0.2 nM

B6: H4H1248P (antibody, IgG4, V domains shown)
VH: QVQLVESGGGVVQPGRSLRLSCAASGFTFSSYGMHWVRQAPGKGLEWVAVISYDGSNKYYADSVKGRFTISRDNSKNTLYLQMNSLRAEDTAVYYCAKVGATTFYYYYGMDVWGQGTTVTVSS
VL: DIQMTQSPSSVSAFVGDRVTITCRASQGISSWLAWYQQKPGKAPKLLIYAASSLQSGVPSRFSGSGSGTDFTLTISSLQPEDFATYYCQKANSFPFTFGPGTKVEIK
Kd (hANGPTL3(17-460)-His [1]): 0.986 nM | koff (hANGPTL3(17-460)-His [1]): 0.00193 s⁻¹ | kon (hANGPTL3(17-460)-His [1]): 1.96e+06 M⁻¹ s⁻¹ | t1/2 (hANGPTL3(17-460)-His [1]): 6 min | binding result (mANGPTL3(17-455)-His): no binding | Kd (hANGPTL3(17-460)-His [2]): 5.62 nM | koff (hANGPTL3(17-460)-His [2]): 0.00247 s⁻¹ | kon (hANGPTL3(17-460)-His [2]): 440000 M⁻¹ s⁻¹ | t1/2 (hANGPTL3(17-460)-His [2]): 5 min | Kd (hANGPTL3(17-169)-mFc): 5.95 nM | koff (hANGPTL3(17-169)-mFc): 0.00272 s⁻¹ | kon (hANGPTL3(17-169)-mFc): 457000 M⁻¹ s⁻¹ | t1/2 (hANGPTL3(17-169)-mFc): 4 min

B7: H4H1263S (antibody, IgG4, V domains shown)
VH: QVQLVQSGGGVVQPGRSLRLSCAASGFTFSTYGMHWVRQAPGKGLEWMAVISFDRGNKYYADSVKGRFTISRDNSKNTLYLQMNSLRAEDTAVYYCAKGGGSGTFYYYYGMDVWGQGTTVTVSS
VL: DIQMTQSPSSVSASVGNRVTITCRASQGISSWLAWYHQKPGKVPKVLIYAASSLQSGVPSRFSGSGSGTDFTLTISSLQPEDFATYYCQQANSFPFTFGPGTKVEIKR
Kd (hANGPTL3(17-460)-His [1]): 0.381 nM | koff (hANGPTL3(17-460)-His [1]): 0.00181 s⁻¹ | kon (hANGPTL3(17-460)-His [1]): 4.74e+06 M⁻¹ s⁻¹ | t1/2 (hANGPTL3(17-460)-His [1]): 6 min | binding result (mANGPTL3(17-455)-His): no binding | Kd (hANGPTL3(17-460)-His [2]): 2.47 nM | koff (hANGPTL3(17-460)-His [2]): 0.00126 s⁻¹ | kon (hANGPTL3(17-460)-His [2]): 508000 M⁻¹ s⁻¹ | t1/2 (hANGPTL3(17-460)-His [2]): 9 min | Kd (hANGPTL3(17-169)-mFc): 6.23 nM | koff (hANGPTL3(17-169)-mFc): 0.00422 s⁻¹ | kon (hANGPTL3(17-169)-mFc): 677000 M⁻¹ s⁻¹ | t1/2 (hANGPTL3(17-169)-mFc): 3 min
